Test results published in patent publication US20180143213A1.

Columns and labels:
[1] = molecular target: beta2-adrenergic receptor-luciferase fusion protein (human); assay: bridge assay (Example 4A), sc-569 at 100 ng/ml in buffer
[2] = molecular target: beta2-adrenergic receptor-luciferase fusion protein (human); assay: bridge assay (Example 4A), sc-569 at 20 ng/ml in buffer
[3] = molecular target: beta2-adrenergic receptor-luciferase fusion protein (human); assay: bridge assay (Example 4A), sc-569 at 5 ng/ml in buffer
[4] = molecular target: beta2-adrenergic receptor-luciferase fusion protein (human); assay: bridge assay (Example 4A), sc-569 at 10000 ng/ml in buffer
[5] = molecular target: beta2-adrenergic receptor-luciferase fusion protein (human); assay: bridge assay (Example 4A), sc-569 at 20000 ng/ml in buffer
[6] = molecular target: beta2-adrenergic receptor-luciferase fusion protein (human); assay: bridge assay (Example 4A), sc-569 at 200 ng/ml in buffer
[7] = molecular target: beta2-adrenergic receptor-luciferase fusion protein (human); assay: bridge assay (Example 4A), sc-569 at 5000 ng/ml in buffer
[8] = molecular target: beta2-adrenergic receptor-luciferase fusion protein (human); assay: bridge assay (Example 4A), sc-569 at 50 ng/ml in buffer
[9] = molecular target: beta2-adrenergic receptor-luciferase fusion protein (human); assay: bridge assay (Example 4A), sc-569 at 1000 ng/ml in buffer
[10] = molecular target: beta2-adrenergic receptor-luciferase fusion protein (human); assay: bridge assay (Example 4A), sc-569 at 500 ng/ml in buffer
[11] = molecular target: beta2-adrenergic receptor-luciferase fusion protein (human); assay: bridge assay (Example 4A), sc-569 at 1 ng/ml in buffer
[12] = molecular target: beta2-adrenergic receptor-luciferase fusion protein (human); assay: bridge assay (Example 4A), sc-569 at 2000 ng/ml in buffer
[13] = molecular target: beta2-adrenergic receptor-luciferase fusion protein (human); assay: bridge assay (Example 4A), sc-569 at 10 ng/ml in buffer
[14] = molecular target: beta2-adrenergic receptor-luciferase fusion protein (human); assay: bridge assay (Example 4A), sc-569 at 2 ng/ml in buffer

Substance: Antibodies against B2 (sc-569 Santa Cruz, Calif., USA) (antibody)
- RLU [1]: 93900 RLU
- RLU [2]: 45100 RLU
- RLU [3]: 28100 RLU
- RLU [4]: 2.39e+06 RLU
- RLU [5]: 2.87e+06 RLU
- RLU [6]: 187000 RLU
- RLU [7]: 1.71e+06 RLU
- RLU [8]: 76000 RLU
- RLU [9]: 558000 RLU
- RLU [10]: 392000 RLU
- RLU [11]: 24400 RLU
- RLU [12]: 948000 RLU
- RLU [13]: 33400 RLU
- RLU [14]: 25800 RLU
